Source: PMC3568674

B1: GbAH (Granulibacter bethesdensis allophanate hydrolase), wt (Granulibacter bethesdensis CGDNIH1) (protein)
chain: MTLSMTLEGIQAFLAQGGTIEQVVTEAYDRITRYGDKAVWIALRPREEVLAEARALDASPATGKPLYGVPFAVKDNIDVAGLPCSAACPAFTYEPDRDATVVARLRAAGAIVLGKTNLDQFATGLVGTRSPFGAPRCVFDQDYISGGSSSGSAVAVAAGLVAFSLGTDTAGSGRVPAAFNNLVGVKPTKGLLSTSGVVPACRSLDCVTVFAASVAEGTLIRRIAEGYDAADPYSRPSQKRRLPHVGLRVGVPRQDQREFYGNTAYAALYQRALDEMISLDAELVEIDFAPFRDAAKLLYGGPWVAERLEAVGDHLSRAPDSFDPVVRSIVETAKTLSAVDAFRGQYELAALTQQANAQWARMDILLLPTAPTIHKVEAVMADPVRLNSQLGHYTNFVNLLDCAAIAVPAGFIETGLPFGVTLVGPAFSDDSMALIADRLHRRLEPGYGQDRASLPDPVLEETNPEQIALAVVGAHLSGQPLHWQLTERNATLVARTRTAPEYRLYALAETIPPKPGLVADPDFTGDGIEIELWSMDAEAFGTFTALVPAPLAIGTLRLADGTSVKGFVCEPAGLVGAQDITRFGGWRAYLAQ

Columns and labels:
[1] = test system: NC(=O)NC(=O)O; experiment: purified protein; assay type: biochemical, Granulibacter bethesdensis; conditions: 50 mM HEPES pH 7.4, 50 mM NaCl, 1 mM EGTA, 25 °C
[2] = substrate: NC(=O)NC(=O)O; experiment: purified protein; assay type: biochemical, Granulibacter bethesdensis; conditions: 50 mM HEPES pH 7.4, 50 mM NaCl, 1 mM EGTA, 25 °C; remark: listed apart in the source

Molecule	Km [1]	kcat [1]	kcat/Km [1]	Km [2]	kcat [2]	kcat/Km [2]
GbAH (Granulibacter bethesdensis allophanate hydrolase), wt (Granulibacter bethesdensis CGDNIH1; Y299F)	1200 ± 100 µM	0.042 ± 0.001 s⁻¹	35 ± 3 M⁻¹ s⁻¹			
GbAH (Granulibacter bethesdensis allophanate hydrolase), wt (Granulibacter bethesdensis CGDNIH1; Y299A)	3000 ± 400 µM	0.071 ± 0.002 s⁻¹	24 ± 3 M⁻¹ s⁻¹			
B1				100 ± 2 µM	18 ± 1 s⁻¹	180000 ± 3000 M⁻¹ s⁻¹
